Test results taken from the supplement of paper PMC10567573.

B1: MMP1 (parent)
chain: FVRGDHRDNSPFDGPGGNLAHAFQ

Variants of: B1
Assay: protein stability index of a GFP-peptide fusion (GPS, HEK-293T) (PSI 1-6); higher = more stable
Conditions: c terminus: a fixed tail appended
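Further: lentivirally expressed fusions sorted by FACS into six bins by GFP to DsRed ratio, PSI derived from sequencing read proportions per bin multiplied by bin number.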

| Variant | protein stability index |
| --- | --- |
| FVRGDHNDNSPFDGPGGNLAHAFQ | 1.7 |
| FVRGDHGDNSPFDGPGGNLAHAFQ | 1.26 |
| FVRGDHRDNSPIDGPGGNLAHAFQ | 1.72 |
| FVRGDHRDNSPPDGPGGNLAHAFQ | 2.31 |
| FVRGDHRDNSPNDGPGGNLAHAFQ | 1.83 |
| FVRGDHRDNSPLDGPGGNLAHAFQ | 1.72 |
| FVRGDHRDNSPHDGPGGNLAHAFQ | 1.99 |
| FVRGDHRDNSPSDGPGGNLAHAFQ | 1.95 |
| FVRGDHRDNSPMDGPGGNLAHAFQ | 2.08 |
| FVRGDHRDNSPFDGPGGNLAHAFF | 2.78 |
| FVRGDHRDNSPFDGPGGNLAHAFK | 1.6 |
| FVRGDHRDNSPFDGPGGNLAHAFD | 2.75 |
| FVRGDHRDNSPFDGPGGNLAHAFC | 1.72 |
| FVRGDHRDNSPFDGPGGNLAHAFM | 2.73 |
| FVRGDHRDNSPFYGPGGNLAHAFQ | 3.03 |
| FVRGDHRDNSPFVGPGGNLAHAFQ | 3.19 |
| FVRGDHRDNSPFTGPGGNLAHAFQ | 2.27 |
| FVRGDHRDNSPFIGPGGNLAHAFQ | 1.63 |
| FVRGDHRDNSPFPGPGGNLAHAFQ | 3.31 |
| FVRGDHRDNSPFKGPGGNLAHAFQ | 1.59 |
| FVRGDHRDNSPFNGPGGNLAHAFQ | 1.77 |
| FVRGDHRDNSPFQGPGGNLAHAFQ | 2.21 |
| FVRGDHRDNSPFDGPGENLAHAFQ | 1.6 |
| FVRGDHRDNSPFDGPGFNLAHAFQ | 2.18 |

| Variant | protein stability index |
| --- | --- |
| FVRGDHRDNSPFDGPGTNLAHAFQ | 2.05 |
| FVRGDHRDNSPFDGPGYNLAHAFQ | 3.31 |
| FVRGDHRDNSPFDGPGMNLAHAFQ | 3.38 |
| FVRGDHRDNSPFDGPGNNLAHAFQ | 2.48 |
| FVRGDHRDNSPFDGPGRNLAHAFQ | 1.79 |
| FVRGDHRDNSPFDGPGDNLAHAFQ | 1.82 |
| FVRGDHRDNSPFDGPGCNLAHAFQ | 2.62 |
| FVRGDHRDNSPFDGPGSNLAHAFQ | 2.3 |
| FVRGDHRDNVPFDGPGGNLAHAFQ | 1.42 |
| FVRGDHRDNMPFDGPGGNLAHAFQ | 2.11 |
| FVRGDHRDNNPFDGPGGNLAHAFQ | 1.38 |
| FVRGDHRDNPPFDGPGGNLAHAFQ | 2.84 |
| FVRGDHRDNAPFDGPGGNLAHAFQ | 2.32 |
| FVRGDHRDNQPFDGPGGNLAHAFQ | 1.6 |
| FVRTDHRDNSPFDGPGGNLAHAFQ | 2.52 |
| FVRYDHRDNSPFDGPGGNLAHAFQ | 2.09 |
| FVRRDHRDNSPFDGPGGNLAHAFQ | 1.56 |
| FVRKDHRDNSPFDGPGGNLAHAFQ | 1.57 |
| FVRHDHRDNSPFDGPGGNLAHAFQ | 2.26 |
| FVRFDHRDNSPFDGPGGNLAHAFQ | 2.06 |
| FVRIDHRDNSPFDGPGGNLAHAFQ | 1.64 |
| FVRCDHRDNSPFDGPGGNLAHAFQ | 2.67 |
| FVRGDHRDNSPFDGPGGNLAQAFQ | 1.62 |
| FVRGDHRDNSPFDGPGGNLAAAFQ | 2.77 |

| Variant | protein stability index |
| --- | --- |
| FVRGDHRDNSPFDGPGGNLAVAFQ | 1.6 |
| FVRGDHRDNSPFDGPGGNLARAFQ | 1.33 |
| FVRGDHRDNSPFDGPGGNLADAFQ | 2.15 |
| FVRGDHRDNSPFDGPGGNLAMAFQ | 2.01 |
| FVRGDHRDNSPFDGPGGNLAPAFQ | 1.47 |
| FVRGDHRDNSPFDGPGGNLATAFQ | 2.1 |
| FVRGDHRDNSPFDGPGGNLACAFQ | 2.53 |
| FVRGDHRDNSPFDGPMGNLAHAFQ | 1.79 |
| FVRGDHRDNSPFDGPDGNLAHAFQ | 2.29 |
| FVRGDHRDNSPFDGPRGNLAHAFQ | 2.45 |
| FVRGDHRDNSPFDGPEGNLAHAFQ | 2.54 |
| FVRGDHRDNSPFDGPIGNLAHAFQ | 2.4 |
| FVRGDHRDNSPFDGPPGNLAHAFQ | 1.75 |
| FVRGDHRDNSPFDGPVGNLAHAFQ | 1.83 |
| FVRGDHRDNSPFDGPLGNLAHAFQ | 2.81 |
| FVRGDHRDNSPFDGPKGNLAHAFQ | 1.52 |
| FVRGDHRDNSPFDGPQGNLAHAFQ | 2.75 |
| FVRGDHRDNSPFDGPSGNLAHAFQ | 2.23 |
| FVRGDHRDNSPFDGPAGNLAHAFQ | 1.34 |
| FVRGDHRDNSPFDGPYGNLAHAFQ | 2.73 |
| FVRGDHRDNSPFDGPTGNLAHAFQ | 2.32 |
| FVRGDHRDNSPFDGPGGNLHHAFQ | 1.44 |
| FVRGDHRDNSPFDGPGGNLKHAFQ | 2.56 |
| FVRGDHRDNSPFDGPGGNLPHAFQ | 1.74 |

| Variant | protein stability index |
| --- | --- |
| FVRGDHRDNSPFDGPGGNLFHAFQ | 2.66 |
| FVRGDHRDNSPFDGPGGNLYHAFQ | 1.29 |
| FVRGDHRDNSPFDGPGGNLEHAFQ | 1.89 |
| FVRGDHRDNSPFDGPGGNLSHAFQ | 1.88 |
| FVRGDHRDNSPFDGPGGNLQHAFQ | 1.69 |
| FVRGDHRDNSPFDGPGGNQAHAFQ | 1.51 |
| FVRGDHRDNSPFDGPGGNFAHAFQ | 2 |
| FVRGDHRDNSPFDGPGGNMAHAFQ | 2.1 |
| FVRGDHRDNSPFDGPGGNIAHAFQ | 1.95 |
| FVRGDHRDNSPFDGPGGNGAHAFQ | 2.63 |
| FVRGDHRDNSPFDGPGGNRAHAFQ | 1.66 |
| FVRGDHRDNSPFDGPGGNEAHAFQ | 1.99 |
| FVRGDHRDNSPFDGPGGNVAHAFQ | 3.29 |
| FVRGDHRDNSPFDGPGGNDAHAFQ | 2.35 |
| FVRGDHRDNSPFDGPGGNCAHAFQ | 1.96 |
| FVRGDCRDNSPFDGPGGNLAHAFQ | 2.02 |
| FVRGDDRDNSPFDGPGGNLAHAFQ | 2.5 |
| FVRGDPRDNSPFDGPGGNLAHAFQ | 1.48 |
| FVRGDMRDNSPFDGPGGNLAHAFQ | 2.16 |
| FVRGDFRDNSPFDGPGGNLAHAFQ | 3.13 |
| FVRGDGRDNSPFDGPGGNLAHAFQ | 2.26 |
| FVRGDKRDNSPFDGPGGNLAHAFQ | 2.57 |
